Source: patent US20250320288A1, “METHOD OF TREATING VITILIGO WITH INTERFERON-GAMMA ANTIBODY” (Elixiron Immunotherapeutics (Hong Kong), priority 2022, published 2025)
“Also recorded” adds a separate entry of the source.

Key:
melanocytes [1] = assay: Lipid peroxidation in melanocytes (BODIPY 581/591 C11); assay type: cell-based, human; conditions: melanocytes
Method: For lipid peroxidation examination, melanocyte cells were seeded in a 6-well plate and treated with IFN-γ the next day. Melanocytes were washed with PBS and incubated with Hanks balanced salt solution (HBSS, Gibco) containing 5 μM BODIPY 581/591 C11 (Invitrogen, D3861) and incubated for 15 minutes at 37° C. in a tissue culture incubator. The cells were resuspended with fresh HBSS and examined with flow cytometry; the data were analyzed with FlowJo.

melanocytes [2] = assay: Intracellular ROS in melanocytes (CM-H2DCFDA); assay type: cell-based, human; conditions: melanocytes
Method: Materials and methods: For intracellular ROS measurement, melanocytes were washed with PBS and incubated with 20 μM CM-H2DCFDA (Invitrogen) for 30 min at 37° C. in the dark. The cells were resuspended with PBS and examined with flow cytometry at an excitation wavelength of 488 nm and an emission wavelength of 530 nm; the data were analyzed with FlowJo.

recombinant human IFN-γ = molecular target: T1, recombinant human IFN-γ (Homo sapiens, UniProt P01579); assay: EI-001 neutralization of IFN-γ, restoration of melanocyte melanogenesis; assay type: cell-based; conditions: addition of 2A6Q
T1 sequence (P01579 24-161 limits assumed): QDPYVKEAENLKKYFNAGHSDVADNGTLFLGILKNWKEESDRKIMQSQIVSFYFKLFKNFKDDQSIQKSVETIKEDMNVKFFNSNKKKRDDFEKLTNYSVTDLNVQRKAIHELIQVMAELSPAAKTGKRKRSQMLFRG
Method: Materials and methods: To examine the dose-dependency of IFN-γ inhibition of HEMn-DP cell melanogenesis, HEMn-DP cells were seeded into a 24-well plate at a concentration of 200,000 cells/well in 1 mL assay medium (M254 supplemented with 1× HMGS, 10 ng/mL PMA plus Penicillin-Streptomycin) with serial dilutions of IFN-γ, followed by incubation at 37° C. for 7 days. The cell assay medium was replaced by fresh medium with serially titrated concentrations of IFN-γ on day 3 and day 5. On day 7, cells were first washed with PBS twice, lysed in 250 μL of 1N NaOH/10% DMSO solution, then incubated at 80° C. for 1 hr. After lysis, each lysate was transfer to 96 well plate, and absorbance of melanin was then measured at […]. The relative melanin quantity was normalized with cell viability of each sample which was measured by CellTiter-Glo kit, and data were analyzed using nonlinear regression curve fit using GraphPad Prism7. To determine the potency of EI-001, HEMn-DP cells were seeded as previously described, and IFN-γ pre-incubated with indicated amounts of EI-001 for 25 min in 1 mL of assay medium. After incubation, the mixture was added to each well (final IFN-γ concentration is 20 ng/ml). Melanin content of melanocytes was determined as previously described.

B1: EI-001: human monoclonal anti-IFN-γ neutralizing antibody; VH SEQ ID NO: 165, VL SEQ ID NO: 113; N76Q removes VH glycosylation site (antibody, listed as Homo sapiens, V domains shown)
VH: EVQLVESGGGLVKPGDSLTVSCVASGFTFSNYFIHWVRQAPGKGLEWVATISGRTKYMFYSDSLRGRFTVSRDNAQNSVYLHMSSLRGEDTALYYCVRGYDHSDSNSAADLLHWGRGTLVTVSS
VL: NFMLTQPLSVSGYPGKTIVISCVRSSGSVASHYVQWFQQRPGSAPAMVIYEDSHRPSGIPDRFSGSVDASSNSASLTISGLKTEDEADYFCQSYYGNNQVLFGGGTKLTVL
modifications: Recombinant variant antibody sequence
notes: human monoclonal anti-IFN-γ neutralizing antibody; N76Q removes VH glycosylation site
reversal of IFN-γ induced lipid peroxidation (melanocytes [1]): reverses | reversal of IFN-γ induced ROS / cellular oxidative stress (melanocytes [2]): reverses the ROS | rescue of IFN-γ induced decrease in melanin content (recombinant human IFN-γ): can be rescued; also recorded: reverses
